Measurements reported in PMC7736860.

Legend:
Assay in all cases: EMSA
Settings in all cases: Chemiluminescent EMSA kit (Beyotime); buffer, salt, pH and temperature not stated
[1] = target: T1, bHLH106 (Arabidopsis thaliana) (UniProt O80674)
T1 sequence: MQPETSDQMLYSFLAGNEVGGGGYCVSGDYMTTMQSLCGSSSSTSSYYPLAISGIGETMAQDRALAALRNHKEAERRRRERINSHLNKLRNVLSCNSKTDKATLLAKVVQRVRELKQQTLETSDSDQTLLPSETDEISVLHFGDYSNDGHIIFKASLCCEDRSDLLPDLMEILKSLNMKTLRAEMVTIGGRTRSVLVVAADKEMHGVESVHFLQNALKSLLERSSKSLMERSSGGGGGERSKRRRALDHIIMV

[2] = target: T2, BTF3 (Arabidopsis thaliana) (UniProt Q9SMW7)
T2 sequence: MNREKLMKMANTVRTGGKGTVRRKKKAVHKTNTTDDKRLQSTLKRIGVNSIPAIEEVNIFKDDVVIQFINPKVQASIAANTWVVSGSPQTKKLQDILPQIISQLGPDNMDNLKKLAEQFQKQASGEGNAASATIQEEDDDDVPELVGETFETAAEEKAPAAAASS

[3] = target: T3, bZIP1664 (Arabidopsis thaliana) (UniProt F4I978)
T3 sequence: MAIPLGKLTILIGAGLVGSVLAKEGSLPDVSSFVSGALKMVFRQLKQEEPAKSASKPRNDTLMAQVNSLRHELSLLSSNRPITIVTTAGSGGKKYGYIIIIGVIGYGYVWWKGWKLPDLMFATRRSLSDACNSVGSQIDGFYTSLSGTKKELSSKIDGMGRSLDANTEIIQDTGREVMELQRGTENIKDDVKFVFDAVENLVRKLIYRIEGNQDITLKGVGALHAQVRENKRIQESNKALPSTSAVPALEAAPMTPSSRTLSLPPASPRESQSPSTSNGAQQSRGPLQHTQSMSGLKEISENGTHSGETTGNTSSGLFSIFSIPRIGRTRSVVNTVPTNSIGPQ

[4] = target: T4, TEM1 (TEMPRANILLO1) (Arabidopsis thaliana) (UniProt Q9C6M5)
T4 sequence: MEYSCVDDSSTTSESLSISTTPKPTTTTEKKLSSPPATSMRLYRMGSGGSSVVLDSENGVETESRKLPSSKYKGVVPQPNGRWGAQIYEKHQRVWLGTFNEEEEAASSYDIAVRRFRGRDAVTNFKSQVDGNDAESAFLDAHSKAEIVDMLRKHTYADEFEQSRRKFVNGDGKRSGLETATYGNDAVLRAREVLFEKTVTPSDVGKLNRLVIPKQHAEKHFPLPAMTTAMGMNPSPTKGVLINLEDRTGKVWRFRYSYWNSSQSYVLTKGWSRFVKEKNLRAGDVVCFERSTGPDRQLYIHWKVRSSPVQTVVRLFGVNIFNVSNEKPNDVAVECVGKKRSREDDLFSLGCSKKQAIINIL

[5] = target: T5, HAT1 (Arabidopsis thaliana) (UniProt P46600)
T5 sequence: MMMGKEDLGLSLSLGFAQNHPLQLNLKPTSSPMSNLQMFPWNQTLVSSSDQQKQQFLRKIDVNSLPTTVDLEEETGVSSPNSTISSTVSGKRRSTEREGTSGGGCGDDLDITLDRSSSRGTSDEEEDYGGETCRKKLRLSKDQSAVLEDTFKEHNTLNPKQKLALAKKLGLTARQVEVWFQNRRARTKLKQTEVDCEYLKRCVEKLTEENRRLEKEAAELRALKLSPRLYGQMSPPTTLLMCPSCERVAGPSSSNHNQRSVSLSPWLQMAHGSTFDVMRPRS

Measured: binding

GTGAAACAGCGTGTGTTATGCACAATAATGGATTCCCGAAGTGGAAGGGTACATTTGTCCTTTCGAGATCAATTTCTCGATACAGTAAAAATGGGCCATTGTTGTTTACTTTTCCTTGGTGTTAAAACAATAATGTAGTGCCCCCACTTAGATATTTTTTTGCTAGGTTTTGGCTCCAACCCAAGAAAAATTCGTTCGGTGACTAATAATAATCGCTGACCCCGA (double strand)
binds: all assays above
